Data from patent US20260234255A1 (Genmab, published 2026).
Substitutions are numbered along the chain they refer to.

T1: human CD30 (human, UniProt P28908 19-595)
T1 sequence: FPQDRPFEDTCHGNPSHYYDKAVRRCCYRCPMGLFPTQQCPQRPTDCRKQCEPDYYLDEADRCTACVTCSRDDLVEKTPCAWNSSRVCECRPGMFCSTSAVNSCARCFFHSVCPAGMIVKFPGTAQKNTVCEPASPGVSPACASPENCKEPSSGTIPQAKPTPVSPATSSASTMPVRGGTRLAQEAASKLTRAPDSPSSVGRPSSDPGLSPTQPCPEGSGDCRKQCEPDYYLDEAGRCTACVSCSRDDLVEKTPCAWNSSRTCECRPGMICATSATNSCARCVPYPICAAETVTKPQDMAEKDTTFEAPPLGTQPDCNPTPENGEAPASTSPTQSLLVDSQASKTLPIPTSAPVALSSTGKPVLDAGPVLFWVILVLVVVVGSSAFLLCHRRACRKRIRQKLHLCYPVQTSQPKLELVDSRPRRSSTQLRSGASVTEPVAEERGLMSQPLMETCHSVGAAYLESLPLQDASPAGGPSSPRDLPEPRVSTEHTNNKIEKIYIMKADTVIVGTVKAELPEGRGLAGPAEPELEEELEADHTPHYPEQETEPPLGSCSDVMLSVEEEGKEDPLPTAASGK

T2: rhesus monkey (Macaca mulatta) CD30 (rhesus monkey, UniProt P28908 19-595 (human entry))
T2 construct: also called mmCD30
T2 chain: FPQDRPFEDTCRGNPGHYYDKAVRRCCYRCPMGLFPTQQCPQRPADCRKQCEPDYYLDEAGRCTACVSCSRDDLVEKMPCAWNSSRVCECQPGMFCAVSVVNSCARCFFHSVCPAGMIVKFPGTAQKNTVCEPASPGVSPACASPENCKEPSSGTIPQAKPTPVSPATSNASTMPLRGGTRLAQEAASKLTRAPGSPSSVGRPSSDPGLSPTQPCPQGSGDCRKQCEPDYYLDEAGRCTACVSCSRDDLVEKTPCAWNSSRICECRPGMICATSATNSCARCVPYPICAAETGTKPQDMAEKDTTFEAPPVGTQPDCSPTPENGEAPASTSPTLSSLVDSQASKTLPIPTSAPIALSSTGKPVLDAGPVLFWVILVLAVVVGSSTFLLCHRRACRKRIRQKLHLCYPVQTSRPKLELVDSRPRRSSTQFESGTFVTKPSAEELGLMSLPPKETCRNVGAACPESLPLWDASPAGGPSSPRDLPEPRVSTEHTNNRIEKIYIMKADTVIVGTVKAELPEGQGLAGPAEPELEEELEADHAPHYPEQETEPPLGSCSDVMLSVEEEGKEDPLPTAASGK

T3: cynomolgus monkey (Macaca fascicularis) CD30 (cynomolgus monkey, UniProt P28908 19-595 (human entry))
T3 construct: also called mfCD30
T3 chain: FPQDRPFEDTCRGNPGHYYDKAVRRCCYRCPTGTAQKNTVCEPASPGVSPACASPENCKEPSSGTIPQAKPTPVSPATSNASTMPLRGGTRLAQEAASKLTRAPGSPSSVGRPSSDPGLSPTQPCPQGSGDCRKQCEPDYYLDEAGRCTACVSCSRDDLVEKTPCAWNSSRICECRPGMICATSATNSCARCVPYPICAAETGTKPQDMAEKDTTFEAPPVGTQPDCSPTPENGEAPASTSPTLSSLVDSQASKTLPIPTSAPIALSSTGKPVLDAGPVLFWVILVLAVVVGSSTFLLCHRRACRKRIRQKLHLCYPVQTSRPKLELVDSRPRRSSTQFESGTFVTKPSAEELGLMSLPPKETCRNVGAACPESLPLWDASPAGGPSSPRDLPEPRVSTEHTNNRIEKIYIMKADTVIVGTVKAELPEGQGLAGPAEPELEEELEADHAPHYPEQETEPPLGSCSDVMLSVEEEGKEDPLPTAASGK

B1: bsG1-huCD3-FEALxCD30-HRS-3-FEAR (bispecific antibody, human IgG1, kappa, lambda)
heavy 1: not shown
light 1: not shown
heavy 2: QVQLQQSGAELARPGASVKMSCKASGYTFTTYTIHWVRQRPGHDLEWIGYINPSSGYSDYNQNFKGKTTLTADKSSNTAYMQLNSLTSEDSAVYYCARRADYGNYEYTWFAYWGQGTTVTVSSASTKGPSVFPLAPSSKSTSGGTAALGCLVKDYFPEPVTVSWNSGALTSGVHTFPAVLQSSGLYSLSSVVTVPSSSLGTQTYICNVNHKPSNTKVDKRVEPKSCDKTHTCPPCPAPEFEGGPSVFLFPPKPKDTLMISRTPEVTCVVVAVSHEDPEVKFNWYVDGVEVHNAKTKPREEQYNSTYRVVSVLTVLHQDWLNGKEYKCKVSNKALPAPIEKTISKAKGQPREPQVYTLPPSREEMTKNQVSLTCLVKGFYPSDIAVEWESNGQPENNYKTTPPVLDSDGSFFLYSRLTVDKSRWQQGNVFSCSVMHEALHNHYTQKSLSLSPG
light 2: DIVMTQSPKFMSTSVGDRVTVTCKASQNVGTNVAWFQQKPGQSPKVLIYSASYRYSGVPDRFTGSGSGTDFTLTISNVQSEDLAEYFCQQYHTYPLTFGGGTKLEINRTVAAPSVFIFPPSDEQLKSGTASVVCLLNNFYPREAKVQWKVDNALQSGNSQESVTEQDSKDSTYSLSSTLTLSKADYEKHKVYACEVTHQGLSSPVTKSFNRGEC
notes: Bispecific IgG1 made by controlled Fab-arm exchange
B2: bsG1-huCD3-FEALxCD30-T105-FEAR (bispecific antibody, human IgG1, kappa, lambda)
heavy 1: not shown
light 1: not shown
heavy 2: not shown
light 2: B1 light 2 with P8Q, T20S, G30N, F36Y, K45E, V46A, H92N, T93S, G100S, N107K
notes: Bispecific IgG1 made by controlled Fab-arm exchange; also called bsIgG1-huCD3-FEALxCD30-T105-FEAR
B3: bsG1-b12-FEALxCD30-MDX060-FEAR (bispecific antibody, human IgG1, kappa)
heavy 1: QVQLVQSGAEVKKPGASVKVSCQASGYRFSNFVIHWVRQAPGQRFEWMGWINPYNGNKEFSAKFQDRVTFTADTSANTAYMELRSLRSADTAVYYCARVGPYSWDDSPQDNYYMDVWGKGTTVIVSSASTKGPSVFPLAPSSKSTSGGTAALGCLVKDYFPEPVTVSWNSGALTSGVHTFPAVLQSSGLYSLSSVVTVPSSSLGTQTYICNVNHKPSNTKVDKRVEPKSCDKTHTCPPCPAPEFEGGPSVFLFPPKPKDTLMISRTPEVTCVVVAVSHEDPEVKFNWYVDGVEVHNAKTKPREEQYNSTYRVVSVLTVLHQDWLNGKEYKCKVSNKALPAPIEKTISKAKGQPREPQVYTLPPSREEMTKNQVSLTCLVKGFYPSDIAVEWESNGQPENNYKTTPPVLDSDGSFLLYSKLTVDKSRWQQGNVFSCSVMHEALHNHYTQKSLSLSPG
light 1: EIVLTQSPGTLSLSPGERATFSCRSSHSIRSRRVAWYQHKPGQAPRLVIHGVSNRASGISDRFSGSGSGTDFTLTITRVEPEDFALYYCQVYGASSYTFGQGTKLERKRTVAAPSVFIFPPSDEQLKSGTASVVCLLNNFYPREAKVQWKVDNALQSGNSQESVTEQDSKDSTYSLSSTLTLSKADYEKHKVYACEVTHQGLSSPVTKSFNRGEC
heavy 2: QVQLQQWGAGLLKPSETLSLTCAVYGGSFSAYYWSWIRQPPGKGLEWIGDINHGGGTNYNPSLKSRVTISVDTSKNQFSLKLNSVTAADTAVYYCASLTAYWGQGSLVTVSSASTKGPSVFPLAPSSKSTSGGTAALGCLVKDYFPEPVTVSWNSGALTSGVHTFPAVLQSSGLYSLSSVVTVPSSSLGTQTYICNVNHKPSNTKVDKRVEPKSCDKTHTCPPCPAPEFEGGPSVFLFPPKPKDTLMISRTPEVTCVVVAVSHEDPEVKFNWYVDGVEVHNAKTKPREEQYNSTYRVVSVLTVLHQDWLNGKEYKCKVSNKALPAPIEKTISKAKGQPREPQVYTLPPSREEMTKNQVSLTCLVKGFYPSDIAVEWESNGQPENNYKTTPPVLDSDGSFFLYSRLTVDKSRWQQGNVFSCSVMHEALHNHYTQKSLSLSPG
light 2: DIQMTQSPTSLSASVGDRVTITCRASQGISSWLTWYQQKPEKAPKSLIYAASSLQSGVPSRFSGSGSGTDFTLTISSLQPEDFATYYCQQYDSYPITFGQGTRLEIKRTVAAPSVFIFPPSDEQLKSGTASVVCLLNNFYPREAKVQWKVDNALQSGNSQESVTEQDSKDSTYSLSSTLTLSKADYEKHKVYACEVTHQGLSSPVTKSFNRGEC
notes: Monovalent CD30 control
B4: bsG1-huCD3-FEALxb12-FEAR (bispecific antibody)
heavy 1: not shown
light 1: not shown
heavy 2: B3 heavy 1 with L415F, K419R
light 2: B3 light 1
notes: Monovalent CD3 control; The b12 arm is HIV-1 gp120 specific

How the values were obtained:
human CD30 [1] = target: T1, human CD30; experiment: cell-based or functional assay
human CD30 [2] = target: T1, human CD30; experiment: flow cytometry, HDLM-2 cells
Experimental: (§1) Binding of CD3×CD30 bispecific antibodies to two CD30-expressing human tumor cell lines SU-DHL-1 (ALCL; ATCC, cat. no. ACC 356) and HDLM-2 (HL; ATCC, cat. no. CRL-2965) was analyzed […] by flow cytometry.
(§2) Cells (3×10⁴ cells/well) were incubated in polystyrene 96-well round-bottom plates (Greiner bio-one, cat. no. 650180) with serial dilutions of antibodies (range 0.0046 to 10 μg/mL in 3-fold dilution steps) in 50 μL staining buffer at 4° C. for 30 min. After washing twice in staining buffer, cells were incubated with 50 μL secondary antibody at 4° C. for 30 min. […] Next, cells were washed twice in staining buffer, resuspended in 100 μL staining buffer supplemented with TO-PRO-3 iodide (Thermo Fisher Scientific; cat. no. T3605; 1:8000 dilution) and analyzed on a FACSCelesta flow cytometer (BD Biosciences, USA). Live cells were gated based on FSC/SSC and absence of TOPRO-3 staining. Binding curves were analyzed by non-linear regression of log-transformed data (sigmoidal dose-response with variable slope, four parameters) using GraphPad Prism V7.02 software (GraphPad Software, San Diego, CA, USA).

human CD30 [3] = target: T1, human CD30; experiment: flow cytometry, SU-DHL-1 cells
Experimental: as §1, §2

[4] = target: T2, rhesus monkey (Macaca mulatta) CD30; experiment: flow cytometry, Expi293F cells transfected with rhesus monkey CD30
Experimental: (§3) Cells (3×10⁴ cells/well) were incubated in polystyrene 96-well round-bottom plates (Greiner bio-one, cat. no. 650180) with serial dilutions of antibodies (ranging from 0.005 to 10 μg/mL in 3-fold dilution steps) in 100 μL staining buffer at 4° C. for 30 min. Experiments were performed in technical duplicate. After washing twice in staining buffer, cells were incubated in 50 μL secondary antibody at 4° C. for 30 min. As a secondary antibody, R-PE-conjugated goat-anti-human IgG (Jackson ImmunoResearch, UK; cat. no. 109⁻¹¹⁶-098) diluted 1:400 in staining buffer was used. Cells were washed twice in staining buffer, resuspended in 30 μL staining buffer containing 0.4% EDTA and analyzed on an iQue Screener (Intellicyt Corporation, USA). Binding curves were analyzed using non-linear regression (sigmoidal dose-response with variable slope) using GraphPad Prism V9.0.0 software (GraphPad Software, San Diego, CA, USA).

human CD30 [5] = target: T1, human CD30; experiment: flow cytometry, HDLM-2 cells
human CD30 [6] = target: T1, human CD30; experiment: flow cytometry, DEL cells
human CD30 [7] = target: T1, human CD30; experiment: flow cytometry, KI-JK cells
[8] = target: T3, cynomolgus monkey (Macaca fascicularis) …; experiment: flow cytometry, Expi293F cells transfected with cynomolgus monkey CD30 (mfCD30)
Experimental: as §3

cynomolgus monkey CD3 = target: T4, cynomolgus monkey CD3 (cynomolgus monkey, UniProt Q95LI5 22-198); experiment: flow cytometry, cynomolgus monkey T cells (PBMCs)
T4 construct: CD3 endogenously expressed on T cells within cynomolgus monkey PBMCs
T4 sequence (Q95LI5 22-198): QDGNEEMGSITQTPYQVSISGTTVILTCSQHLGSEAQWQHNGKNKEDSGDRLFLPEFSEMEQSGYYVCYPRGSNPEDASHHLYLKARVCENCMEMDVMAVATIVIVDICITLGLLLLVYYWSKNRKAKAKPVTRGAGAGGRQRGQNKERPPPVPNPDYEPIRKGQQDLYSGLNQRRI
Experimental: Cynomolgus monkey PBMCs (Tebu-Bio, The Netherlands; cat. no. PBMCMFA-10) or purified human T cells were plated in polystyrene 96-well round-bottom plates. T cells were derived from human donor buffy coats (Sanquin, Amsterdam, The Netherlands) and isolated using the RosetteSep human T cell enrichment cocktail (Stemcell Technologies, France, cat. no. 15061) according to manufacturer's instructions. […] After washing twice in staining buffer, cells were incubated in 50 μL secondary R-PE-conjugated goat-anti-human IgG antibody at 4° C. for 30 min (1:400 dilution). After washing twice in staining buffer, T cells were stained for T-cell markers CD3 (1:100; Miltenyi biotec, clone 10D12, conjugated to APC), CD4 (1:50; eBioscience, clone OKT4, conjugated to APC-Cy7), CD8 (1:100; Biolegend, clone RPA-T8, conjugated to AF700) and T-cell activation markers CD69 (1:50; BD Biosciences, clone AB2439, conjugated to FITC), CD25 (1:50; eBioscience, clone BC96, conjugated to PE-Cy7) and CD279/PD1 (1:50; BD Biosciences, clone AEH12.2H7, conjugated to BV605). Single stained samples with Ultracomp beads (5 μL; Invitrogen, cat. no. 01-2222-42) were used for compensation adjustments of the flow cytometer. After 30 min of incubation at 4° C., cells were washed twice with staining buffer, resuspended in 100 μL staining buffer and analyzed using a FACS Fortessa (BD Biosciences). Data were processed using FlowJo (BD Biosciences).

Binder	T-cell mediated cytotoxicity of Karpas-299 cells, IC50 average (human CD30 [1]) [µg/mL]	T-cell mediated cytotoxicity of Karpas-299 cells, maximum lysis average (human CD30 [1]) [%]	EC50 (read off the curve) (human CD30 [2]) [µg/mL]	EC50 (read off the curve) (human CD30 [3]) [µg/mL]	EC50 (read off the curve) [4] [µg/mL]	EC50 (read off the curve) (human CD30 [5]) [µg/mL]	EC50 (read off the curve) (human CD30 [6]) [µg/mL]	EC50 (read off the curve) (human CD30 [7]) [µg/mL]	binding result [8]	EC50 (read off the curve) (cynomolgus monkey CD3) [µg/mL]
B1	0.068	47.5	~0.1	~0.2	~0.3					
B2	0.042	52.6	~0.4	~0.3	~0.3					
B3			~0.3	~0.4		~0.1	~0.2	~0.2	binds	
B4										~0.5
